Numbered stars: 1 amine (or outer) side, 2 acyl side, 3 side chain; on linkers, the order of the positions; unused ones are H or OH. Bridge positions count the residues as written; N and C are the ends. Ends that are not written are not given here. Phenylene(1,4-NHCOCH2)2 = O=C(C[*:1])Nc1ccc(NC(=O)C[*:2])cc1
Columns and labels:
FBXW7-SKP1 = biological target: T1, FBXW7-SKP1 (Homo sapiens, UniProt Q969H0); experiment: Naive Library Presenter Screening (phage, NGS), FBXW7-SKP1; format: binding; settings: for interaction data at Target Concentration 10: FBXW7 target concentration 10 nM; for interaction data at Target Concentration 30: FBXW7 target concentration 30 nM; for interaction data at Target Concentration 100: FBXW7 target concentration 100 nM; for interaction data at Target Concentration 300: FBXW7 target concentration 300 nM; for interaction data at Target Concentration 1000: FBXW7 target concentration 1000 nM
T1 construct: FBXW7 (Uniprot ID: Q969H0, residues 263-706) with an N-terminal GST-TEV tag and C-terminal AVI tag; GST-TEV (N); made in house; host or cells: E. coli BL21 (DE3)
Experimental: To conduct phage library screening, previously described procedures were utilized in accordance with the present disclosure.
Next-generation sequencing was performed as described in accordance with the present disclosure.
Hit ID and Clustering is performed according to a described procedure in accordance with the present disclosure.

WWP1 = biological target: T2, WWP1 (Homo sapiens, UniProt Q9H0M0); experiment: Naive Library Presenter Screening (phage, NGS), WWP1 (construct not given); format: binding; settings: for interaction data at Target Concentration 10: WWP1 target concentration 10 nM; for interaction data at Target Concentration 30: WWP1 target concentration 30 nM; for interaction data at Target Concentration 300: WWP1 target concentration 300 nM; for interaction data at Target Concentration 1000: WWP1 target concentration 1000 nM; for interaction data at Target Concentration 100: WWP1 target concentration 100 nM
T2 construct: GST-TEV (N, cleaved yes); made in house; host or cells: Escherichia coli BL21 (DE3)

T1 sequence (Q969H0 263-706): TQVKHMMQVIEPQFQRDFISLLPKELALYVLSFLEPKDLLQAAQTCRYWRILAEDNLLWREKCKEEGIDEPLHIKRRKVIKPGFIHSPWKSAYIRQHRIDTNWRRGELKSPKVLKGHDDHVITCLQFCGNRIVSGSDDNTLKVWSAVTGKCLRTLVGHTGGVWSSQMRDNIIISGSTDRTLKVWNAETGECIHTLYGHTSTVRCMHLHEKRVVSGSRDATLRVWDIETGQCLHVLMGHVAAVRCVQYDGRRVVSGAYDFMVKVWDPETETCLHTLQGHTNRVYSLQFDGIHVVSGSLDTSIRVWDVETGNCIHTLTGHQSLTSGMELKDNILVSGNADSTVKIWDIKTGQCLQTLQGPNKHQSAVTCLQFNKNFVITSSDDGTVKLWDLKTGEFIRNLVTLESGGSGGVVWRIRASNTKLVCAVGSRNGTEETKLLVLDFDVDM
T1 sequence (P63208 whole entry partner, the tested form may be a part): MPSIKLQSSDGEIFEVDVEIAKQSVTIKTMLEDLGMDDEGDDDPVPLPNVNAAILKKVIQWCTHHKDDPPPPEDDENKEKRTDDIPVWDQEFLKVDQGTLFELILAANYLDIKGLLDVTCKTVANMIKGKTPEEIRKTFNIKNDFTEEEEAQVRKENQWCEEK

Sequence | interaction data at Target Concentration 10 (FBXW7-SKP1) | interaction data at Target Concentration 30 (FBXW7-SKP1) | interaction data at Target Concentration 100 (FBXW7-SKP1) | interaction data at Target Concentration 300 (FBXW7-SKP1) | interaction data at Target Concentration 1000 (FBXW7-SKP1; first column) | interaction data at Target Concentration 1000 (FBXW7-SKP1; second column) | interaction data at Target Concentration 10 (WWP1) | interaction data at Target Concentration 30 (WWP1) | interaction data at Target Concentration 300 (WWP1) | interaction data at Target Concentration 1000 (WWP1; first column) | interaction data at Target Concentration 1000 (WWP1; second column) | interaction data at Target Concentration 100 (WWP1)
DPAMTWCLNAAELCEFW | 0 | 0 | 0 | 3 | 17 | 83 | – | – | – | – | – | –
DPAIFDCEFAAHVCSVL (linker 7-14 via Phenylene(1,4-NHCOCH2)2) | – | – | – | – | – | – | 0 | 26 | 436 | 275 | 618 | –
DPANWVCMDAAELCDFY (DPANWVCMDAAELCDFY-NH2; linker 7-14 via Phenylene(1,4-NHCOCH2)2 (inferred)) | 0 | 0 | 5 | 2 | 99 | 15 | – | – | – | – | – | –
DPATETCAQAAVLCHSD (linker 7-14 via Phenylene(1,4-NHCOCH2)2 (inferred); not fully specified (C-terminus)) | – | – | – | – | – | – | 1 | 12 | 200 | 519 | 449 | 3
DPAIQRCSTAAQVCRYL (linker 7-14 via Phenylene(1,4-NHCOCH2)2) | – | – | – | – | – | – | 0 | 6 | 236 | – | 197 | 202
DPAWMACAWAANLCHSS (linker 7-14 via Phenylene(1,4-NHCOCH2)2) | – | – | – | – | – | – | 0 | 18 | 91 | 244 | 253 | 14
DPAFHYCTMAANMCHQD (linker 7-14 via Phenylene(1,4-NHCOCH2)2) | – | – | – | – | – | – | 0 | 0 | 73 | – | 169 | 3
DPAAWICEEAAEICEFW | 0 | 0 | 5 | 4 | 15 | 36 | – | – | – | – | – | –
DPADMMCENAALLCEFW | 1 | 3 | 68 | 20 | 282 | 228 | – | – | – | – | – | –
DPAQQTCSQAAWVCSIL (linker 7-14 via Phenylene(1,4-NHCOCH2)2; not fully specified (C-terminus)) | – | – | – | – | – | – | 0 | 55 | 363 | 397 | 477 | 443
DPAITTCLDAAELCDFW | 1 | 26 | 61 | 34 | 215 | 132 | – | – | – | – | – | –
DPANIACDDAALLCEFW | 4 | 131 | 203 | 946 | 1140 | 1464 | – | – | – | – | – | –
DPADMYCRDAAELCEFW | 1 | 23 | 187 | 302 | 505 | 554 | – | – | – | – | – | –
DPAWVSCVRAANLCHVS (linker 7-14 via Phenylene(1,4-NHCOCH2)2 (inferred); not fully specified (C-terminus)) | – | – | – | – | – | – | 33 | 1 | 0 | 183 | 140 | 0
DPALQTCMDAAQVCRLL (linker 7-14 via Phenylene(1,4-NHCOCH2)2) | – | – | – | – | – | – | 0 | 0 | 163 | – | 197 | 107
DPARWACTEAAHVCDTL (linker 7-14 via Phenylene(1,4-NHCOCH2)2) | – | – | – | – | – | – | 0 | 2 | 182 | 183 | 281 | –
DPAVRDCSDAAIVCELV (linker 7-14 via Phenylene(1,4-NHCOCH2)2) | – | – | – | – | – | – | 5 | 5 | 91 | – | 197 | 147
DPANIACDDAALLCAFW | 0 | 0 | 2 | 7 | 5 | 8 | – | – | – | – | – | –
DPAIIRCTSAAMMCHNT (linker 7-14 via Phenylene(1,4-NHCOCH2)2) | – | – | – | – | – | – | 0 | 4 | 55 | 183 | 169 | 0
DPALASCQQAAWVCEVL (linker 7-14 via Phenylene(1,4-NHCOCH2)2) | – | – | – | – | – | – | 0 | 43 | 291 | – | 309 | 173
DPAMRRCHQAAWVCEVL (linker 7-14 via Phenylene(1,4-NHCOCH2)2) | – | – | – | – | – | – | 0 | 1 | 182 | 183 | 140 | 98
DPAFLTCTLAASLCHQD (linker 7-14 via Phenylene(1,4-NHCOCH2)2) | – | – | – | – | – | – | 0 | 0 | 145 | – | 253 | 0
DPAQLSCTVAAHVCHST (linker 7-14 via Phenylene(1,4-NHCOCH2)2; not fully specified (C-terminus)) | – | – | – | – | – | – | 0 | 25 | 254 | 275 | 140 | 0
DPAHTACNQAARVCHTL (linker 7-14 via Phenylene(1,4-NHCOCH2)2) | – | – | – | – | – | – | 1 | 4 | 200 | – | 253 | 104
DPAHQTCAFAAVLCHQN (linker 7-14 via Phenylene(1,4-NHCOCH2)2) | – | – | – | – | – | – | 0 | 0 | 18 | – | 309 | 32
DPATMNCTLAANICHSH (linker 7-14 via Phenylene(1,4-NHCOCH2)2 (inferred); not fully specified (C-terminus)) | – | – | – | – | – | – | 0 | 0 | 363 | 458 | 197 | 3
DPAFIQCTHAANMCHSS (linker 7-14 via Phenylene(1,4-NHCOCH2)2) | – | – | – | – | – | – | 0 | 3 | – | 336 | 562 | 43
DPAATLCNQAANVCALL (linker 7-14 via Phenylene(1,4-NHCOCH2)2) | – | – | – | – | – | – | 0 | 0 | 145 | – | 197 | 132
DPARLDCTAAAYVCSVL (linker 7-14 via Phenylene(1,4-NHCOCH2)2) | – | – | – | – | – | – | 0 | 0 | 91 | – | 140 | 109
